The text below walks through data of patent US8301398 (WALTER AND ELIZA HALL INSTITUTE OF MEDICAL RESEARCH, dated 2012).

The labels stand for the following.
B1: IR485 (residues 1-485 of the insulin receptor) with enterokinase cleavage site and c-myc epitope tag (receptor)
chain: HLYPGEVCPGMDIRNNLTRLHELENCSVIEGHLQILLMFKTRPEDFRDLSFPKLIMITDYLLLFRVYGLESLKDLFPNLTVIRGSRLFFNYALVIFEMVHLKELGLYNLMNITRGSVRIEKNNELCYLATIDWSRILDSVEDNHIVLNKDDNEECGDICPGTAKGKTNCPATVINGQFVERCWTHSHCQKVCPTICKSHGCTAEGLCCHSECLGNCSQPDDPTKCVACRNFYLDGRCVETCPPPYYHFQDWRCVNFSFCQDLHHKCKNSRRQGCHQYVIHNNKCIPECPSGYTMNSSNLLCTPCLGPCPKVCHLLEGEKTIDSVTSAQELRGCTVINGSLIINIRGGNNLAAELEANLGLIEEISGYLKIRRSYALVSLSFFRKLRLIRGETLEIGNYSFYALDNQNLRQLWDWSKHNLTTTQGKLFFHYNPKLCLSEIHKMEEVSGTKGRQERNDIALKTNGDKASCENELLKFSYIRTSFDKISDDDDKEQKLISEEDLN
notes: also called IR485/myc; soluble IR485

Data set [1] deals with the molecule itself. The data set is described as follows: gel filtration on Superdex 200 HR; monomeric on non-reduced SDS-PAGE. A general note: In gel filtration, larger molecules generally elute earlier.
Description: Further purification was effected by gel filtration on Superdex 200 HR (Pharmacia, Sweden) in TBSA, monitored at 280 nm.
Data set [2] concerns the target B1. The data set is described as follows: sandwich ELISA, biotinylated 83-7 as developing antibody. On the technique in general: ELISA stands for enzyme-linked immunosorbent assay.

In the case of B1, the binding result in data set [1] is “binds”.

B2: anti-insulin receptor monoclonal antibody 83-7 (whole antibody) (antibody, V domains shown)
VH: QVQLKESGPGLVAPSQSLSITCTVSGFPLTAYGVNWVRQPPGKGLEWLGMIWGDGNTDYNSALKSRLSISKDNSKSQVFLKMNSLQTDDTARYYCARDPYGSKPMDYWGQGTSVTVSS
VL: DIVMSQSPSSLVVSVGEKVTMSCKSSQSLLYSSNQKNFLAWYQQKPGQSPKLLIYWASTRESGVPDRFTGSGSGTDFTLTISSVKAEDLAVYYCQQYFRYRTFGGGTKLEIKR
notes: also called Mab 83-7
B2: the binding result in data set [2] is recorded as “binds”.
